# Laboratory results reported in patent US20140303084.
# Substitutions are numbered along the chain they refer to.
# Key:
# [1] = system: T1, SRIRTVGPGSRSASGKLTCLASYCWLFWTGIA
# T1 sequence: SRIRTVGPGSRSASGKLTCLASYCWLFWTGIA
# [2] = system: T2, RRAPGKLCALASYCWLFWTGIA-COOH
# T2 sequence: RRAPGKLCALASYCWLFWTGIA
# KKTCLASYCWLF = system: T3, KKTCLASYCWLF
# T3 sequence: KKTCLASYCWLF
# RLTCLASYCWLF = system: T4, RLTCLASYCWLF
# T4 sequence: RLTCLASYCWLF
# RRAPGKLQCLASYCWLFWTAIA = system: T5, RRAPGKLQCLASYCWLFWTAIA
# T5 sequence: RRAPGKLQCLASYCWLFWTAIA
# [3] = system: T6, SKQGRAISPDrRAAGKLTCLASYCWLFWTGIA
# T6 sequence: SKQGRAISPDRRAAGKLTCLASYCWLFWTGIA
# RRAPGKLQCLASYCWLFWTKIA = system: T7, RRAPGKLQCLASYCWLFWTKIA
# T7 sequence: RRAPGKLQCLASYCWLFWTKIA
# compound 6 = system: T8, compound 6
# T8 sequence: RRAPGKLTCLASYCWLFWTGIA
# RYQRARLTCLASYCGLLFSMSA = system: T9, RYQRARLTCLASYCGLLFSMSA
# T9 sequence: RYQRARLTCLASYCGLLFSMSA
# kLTCLASYCWLF [4] = system: T10, kLTCLASYCWLF
# T10 sequence: KLTCLASYCWLF
# CRRAPGKLQCLASYCWLFWTGIAC = system: T11, CRRAPGKLQCLASYCWLFWTGIAC
# T11 sequence: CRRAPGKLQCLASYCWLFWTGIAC
# [5] = system: T12, PRSRTVGPGSRSASGKSTCLASYCWLFWTGIA
# T12 sequence: T1 sequence with S1P, I3S, L17S
# HQQRRKLTCLAGYCWLFVLGPS = system: T13, HQQRRKLTCLAGYCWLFVLGPS
# T13 sequence: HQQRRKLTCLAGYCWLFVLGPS
# [6] = system: T14, PRIRTSGPGSRSASGKLTCLASYCWLFWTGIA
# T14 sequence: T1 sequence with S1P, V6S
# KLTCLASYCwLF [7] = system: T15, KLTCLASYCwLF
# T15 sequence: KLTCLASYCWLF
# [8] = system: T16, SKQGRPISSDrRAAGKLTCLASYCWLFWTGIA
# T16 sequence: T6 sequence with A6P, P9S
# [9] = system: T17, SKQGRPISPDrRAAGKLTCLASYCWLFWTGI
# T17 sequence: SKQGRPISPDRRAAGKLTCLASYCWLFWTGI
# KLKCLASYCWLF = system: T18, KLKCLASYCWLF
# T18 sequence: KLKCLASYCWLF
# GASGRRRTCVASYCLLFQSGLP = system: T19, GASGRRRTCVASYCLLFQSGLP
# T19 sequence: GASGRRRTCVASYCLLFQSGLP
# k-MeLeu-TCLASFCWLF = system: T20, k-MeLeu-TCLASFCWLF
# T20 sequence: KLTCLASFCWLF
# [10] = system: T21, SKQGRPISPDrRAAGKLTCLASYCWLFWT
# T21 sequence: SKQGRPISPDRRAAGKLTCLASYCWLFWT
# RRAPGKLTCLASYCWLfWTGIA [11] = system: T22, RRAPGKLTCLASYCWLfWTGIA
# T22 sequence: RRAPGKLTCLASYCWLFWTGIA
# [12] = system: T23, SKQGRPISPDrRAAGKLTCLAS-NMeTyr-CWLFWTGIA
# T23 sequence: T6 sequence with A6P
# RGRSAKLRCLASYCWLFFTVIL = system: T24, RGRSAKLRCLASYCWLFFTVIL
# T24 sequence: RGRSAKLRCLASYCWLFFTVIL
# [13] = system: T25, RRAPGKLTCK(PEG2-Biotin)ASYCWLFWTGIA
# T25 sequence: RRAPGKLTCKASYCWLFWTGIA
# K-MeLeu-TCLASYCWLF = system: T26, K-MeLeu-TCLASYCWLF
# T26 sequence: KLTCLASYCWLF
# [14] = system: T27, CGGSGGRRAPGKLQCLASYCWLFWTGIAGGSGGC
# T27 sequence: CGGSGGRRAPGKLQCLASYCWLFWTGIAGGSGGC
# [15] = system: T28, RPRSSAHDRP RRAAG KLTCLASYCWLFWTGIA
# T28 sequence: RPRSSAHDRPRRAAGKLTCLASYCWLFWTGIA
# compound 22 = system: T29, compound 22
# T29 sequence: T6 sequence with A6P
# [16] = system: T30, RRK(PEG2-Biotin)PGKLTCLASYCWLFWTGIA
# T30 sequence: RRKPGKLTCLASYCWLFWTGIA
# KLTCLASYCWL = system: T31, KLTCLASYCWL
# T31 sequence: KLTCLASYCWL
# RRAPGKLQCLASYCWLFWTGFA = system: T32, RRAPGKLQCLASYCWLFWTGFA
# T32 sequence: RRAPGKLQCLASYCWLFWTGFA
# [17] = system: T33, RRAPGKLTCLASYCWLF WTGLL DYPTPQSHEP
# T33 sequence: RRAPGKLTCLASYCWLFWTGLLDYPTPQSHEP
# KLTCL-Dpr-SYCWLF = system: T34, KLTCL-Dpr-SYCWLF
# T34 sequence: KLTCLXSYCWLF
# [18] = system: T35, PRIRTVGPGSRSASGKLTCLASYCWLFWTFIA
# T35 sequence: T1 sequence with S1P, G30F
# KLTCLASYCWLFK = system: T36, KLTCLASYCWLFK
# T36 sequence: KLTCLASYCWLFK
# [19] = system: T37, RRAPGKLT-Dap-LASY-Asp-WLFWTGIA-COOH
# T37 sequence: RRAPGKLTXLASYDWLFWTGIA
# KATCLASYCWLF = system: T38, KATCLASYCWLF
# T38 sequence: KATCLASYCWLF
# WVPQWKVTCLASCSRLFHGFDA = system: T39, WVPQWKVTCLASCSRLFHGFDA
# T39 sequence: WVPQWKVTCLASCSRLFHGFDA
# RRAPGKLTCLASYCWLFWTGIa [20] = system: T40, RRAPGKLTCLASYCWLFWTGIa
# T40 sequence: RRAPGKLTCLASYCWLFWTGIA
# [21] = system: T41, RRAPGKLCALASYCWLFWTGIA-CONH2
# T41 sequence: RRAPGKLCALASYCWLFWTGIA
# RRAPGKLTCLASYCwLFWTGIA [22] = system: T42, RRAPGKLTCLASYCwLFWTGIA
# T42 sequence: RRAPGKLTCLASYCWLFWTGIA
# rRAPGKSTCLASYCWLFWTGIA = system: T43, rRAPGKSTCLASYCWLFWTGIA
# T43 sequence: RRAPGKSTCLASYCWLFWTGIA
# [23] = system: T44, GSVRRALFVA ARAPA KLTCLASYCWLFWTGIA
# T44 sequence: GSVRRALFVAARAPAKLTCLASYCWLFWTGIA
# TGS-KLTCLASYCWLF-APG = system: T45, TGS-KLTCLASYCWLF-APG
# T45 sequence: TGSKLTCLASYCWLFAPG
# VSGTGKLTCLASYCWLFQLGSF = system: T46, VSGTGKLTCLASYCWLFQLGSF
# T46 sequence: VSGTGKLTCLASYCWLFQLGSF
# RRAPGKLQCLASYCWLFWTGLA = system: T47, RRAPGKLQCLASYCWLFWTGLA
# T47 sequence: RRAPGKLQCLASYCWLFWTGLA
# [24] = system: T48, PSIRTVGPGSRSASGKLTCLASYCWLFWTGIA
# T48 sequence: T1 sequence with S1P, R2S
# [25] = system: T49, RRAPGKLTCLASYCWLF FTGVA RSTTATTNTQ
# T49 sequence: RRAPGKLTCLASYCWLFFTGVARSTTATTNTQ
# [26] = system: T50, RRAP-Sar-KLTCLASYCWLFWTGIA
# T50 sequence: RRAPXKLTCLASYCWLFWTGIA
# [27] = system: T51, PRIRTVGPGSRSASGKLTCFASYCWLFWTGIA
# T51 sequence: T1 sequence with S1P, L20F
substance,measurement,setting,value
human Factor IXa,"Vmax, FXa generation assay",[1],> 3
same,"Vmax, FXa generation assay",[2],> 2
same,"Vmax, FXa generation assay; (++) means 1-2",KKTCLASYCWLF,(++)
same,"Vmax, FXa generation assay",RLTCLASYCWLF,> 2
same,"Vmax, FXa generation assay",RRAPGKLQCLASYCWLFWTAIA,> 2
same,"Vmax, FXa generation assay",[3],> 3
same,"Vmax, FXa generation assay; (++) means 1-2",RRAPGKLQCLASYCWLFWTKIA,(++)
same,"Vmax, FXa generation assay with hFIXa",compound 6,> 2
same,"Vmax, FXa generation assay",RYQRARLTCLASYCGLLFSMSA,> 0.5
same,"Vmax, FXa generation assay",kLTCLASYCWLF [4],> 2
same,"Vmax, FXa generation assay",CRRAPGKLQCLASYCWLFWTGIAC,> 2
same,"Vmax, FXa generation assay",[5],> 3
same,"Vmax, FXa generation assay",HQQRRKLTCLAGYCWLFVLGPS,> 2
same,"Vmax, FXa generation assay",[6],> 3
same,"Vmax, FXa generation assay",KLTCLASYCwLF [7],> 3
same,"Vmax, FXa generation assay",[8],> 3
same,"Vmax, FXa generation assay",[9],> 3
same,"Vmax, FXa generation assay",KLKCLASYCWLF,> 3
same,"Vmax, FXa generation assay",GASGRRRTCVASYCLLFQSGLP,> 0.1
same,"Vmax, FXa generation assay",k-MeLeu-TCLASFCWLF,> 2
same,"Vmax, FXa generation assay",[10],> 2
same,"Vmax, FXa generation assay; (++) means 1-2",RRAPGKLTCLASYCWLfWTGIA [11],(++)
same,"Vmax, FXa generation assay",[12],> 0.3
same,"Vmax, FXa generation assay",RGRSAKLRCLASYCWLFFTVIL,> 2
same,"Vmax, FXa generation assay; (++) means 1-2",[13],(++)
same,"Vmax, FXa generation assay",K-MeLeu-TCLASYCWLF,> 2
same,"Vmax, FXa generation assay; (++) means 1-2",[14],(++)
same,"Vmax, FXa generation assay",[15],> 3
same,"Vmax, FXa generation assay with hFIXa",compound 22,> 3
same,"Vmax, FXa generation assay; (++) means 1-2",[16],(++)
same,"Vmax, FXa generation assay",KLTCLASYCWL,> 3
same,"Vmax, FXa generation assay",RRAPGKLQCLASYCWLFWTGFA,> 2
same,"Vmax, FXa generation assay",[17],> 2
same,"Vmax, FXa generation assay; (++) means 1-2",KLTCL-Dpr-SYCWLF,(++)
same,"Vmax, FXa generation assay",[18],> 2
same,"Vmax, FXa generation assay",KLTCLASYCWLFK,> 3
same,"Vmax, FXa generation assay",[19],> 0.8
same,"Vmax, FXa generation assay",KATCLASYCWLF,> 2
same,"Vmax, FXa generation assay",WVPQWKVTCLASCSRLFHGFDA,> 1.5
same,"Vmax, FXa generation assay; (++) means 1-2",RRAPGKLTCLASYCWLFWTGIa [20],(++)
same,"Vmax, FXa generation assay",[21],> 2
same,"Vmax, FXa generation assay",RRAPGKLTCLASYCwLFWTGIA [22],> 2
same,"Vmax, FXa generation assay; (++) means 1-2",rRAPGKSTCLASYCWLFWTGIA,(++)
same,"Vmax, FXa generation assay",[23],> 2
same,"Vmax, FXa generation assay",TGS-KLTCLASYCWLF-APG,> 2
same,"Vmax, FXa generation assay; (++) means 1-2",VSGTGKLTCLASYCWLFQLGSF,(++)
same,"Vmax, FXa generation assay",RRAPGKLQCLASYCWLFWTGLA,> 2
same,"Vmax, FXa generation assay",[24],> 3
same,"Vmax, FXa generation assay",[25],> 2
same,"Vmax, FXa generation assay",[26],> 2
same,"Vmax, FXa generation assay",[27],> 2
